Measured values as given in the supplement of paper PMC9170038.

Test system: MS2 coat protein
Assay: apparent KD of MS2 coat protein; designed switch direction (-1 OFF switch, 1 ON switch): -1; higher = weaker reporter binding
Procedure, shortened: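 Normalised cluster fluorescence was curve-fitted, and each design's median over clusters is its apparent KD. Before this, SNAP-549-labelled MS2 coat protein was titrated from 0.7 or 1.5 nM, doubling to 3 µM, over RNA switches transcribed on Illumina chips by stalled E. coli RNA polymerase. Titrations had no input, 200 uM small-molecule ligand, or an oligonucleotide input, and steps lasted 0.8–1.5 h (lowest) to 10–20 min (highest).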

[1] = Eterna round: R95, input ligand: microRNA oligo, concentration not stated
[2] = Eterna round: R95, input ligand: FMN 200 uM
[3] = Eterna round: R95, input ligand: none
[4] = input ligand: microRNA oligo, concentration not stated

Sequence: UAUUAGCAAGUAAGAUCCCACAUGAGGAUCACCCAUGUGCUCGUCAUAUAACGUACUGUGAGGAAACUCACGGUACG [Sensor-V1 #84] (Eterna round: R97, puzzle: Sensor, turn-off variant 1)
- apparent KD of MS2 coat protein (input ligand: FMN 200 uM): 0.085 µM
- apparent KD of MS2 coat protein (input ligand: none): 0.103 µM

Sequence: CUCGAGUGAGGAUAUAUACUUCCAUCAUUUGAGAGAGAAGUAUAGAAGGCACAUGAGGAUCACCCAUGUAUAAA [Rierreis] (puzzle: Exclusion 4)
- apparent KD of MS2 coat protein [1]: 0.0413 µM

Sequence: AGGGAUAAAGGAUAUACAUGAGGAUCACCCAUGUUGAGGAAAGUUAGAUGAGGAGGAAGUAGAAGGUUAGGCGA [JR_Exclu3_Sub086] (puzzle: Exclusion 3)
- apparent KD of MS2 coat protein [2]: 0.0311 µM
- apparent KD of MS2 coat protein [1]: 0.0317 µM
- apparent KD of MS2 coat protein [3]: 0.0404 µM

Sequence: CGGCAAAGGUAGGAUAUGCUAGACGAGAGUCUAGCAGAAGGACCUACAUGAGGAUCACCCAUGUGUCCAAGCCG [Mat - Exclusion 6 - Eli Mod - D20] (Eterna round: R97, puzzle: Exclusion 6)
- apparent KD of MS2 coat protein (input ligand: FMN 200 uM): 0.032 µM
- apparent KD of MS2 coat protein (input ligand: none): 0.0973 µM

Sequence: GAUCCACAUGAGGAUCACCCAUGUGAGGAUAUGAUACUAUGUACUUCGGUACAUAGUAUCAGAAGGCAUAUGAA [Ex1-3: 47] (puzzle: Exclusion 1)
- apparent KD of MS2 coat protein [1]: 0.0456 µM

Sequence: GUUCGUGAGAAGGAUAUGAUUCUGGAACAAGAGUUAGAAGGUUUCACAUGAGGAUCACCCAUGUCUAGAAAACC [Eternabot (Original) Solution 32] (Eterna round: R97, puzzle: Exclusion 6)
- apparent KD of MS2 coat protein (input ligand: FMN 200 uM): 0.0122 µM
- apparent KD of MS2 coat protein (input ligand: none): 0.0107 µM

Sequence: CAUUGACAUGAGGAUCACCCAUGUCAGGAUAUGCUUCAUGACACGAAAGUGUCAUGAAGCAGAAGGGACAUGCC [SS1 Omei 1] (puzzle: Exclusion 1)
- apparent KD of MS2 coat protein [1]: 0.0195 µM

Sequence: UUAUACGUUGAGGAUAUGCGACUUAGUAUAGUUGUAGAAGGCGAUACAUGAGGAUCACCCAUGUUUAUGGGCAU [LRO-Ex6-09] (puzzle: Exclusion 6)
- apparent KD of MS2 coat protein [1]: 0.227 µM

Sequence: UGAUGACAUGAGGAUCACCCAUGUCAGGAUAUUGAAGUUGAAGUGAAAGCUUCGGCUUCGAGAAGGGACUGUCG [-29.3, -26.3 kcal, A 28% sequence 3] (Eterna round: R97, puzzle: Exclusion 1)
- apparent KD of MS2 coat protein (input ligand: FMN 200 uM): 0.0295 µM
- apparent KD of MS2 coat protein (input ligand: none): 0.025 µM

Sequence: CCGGAAAUAGAGGAUAUCGUAUCGGAUACGAUACGAGAAGGCUGUACAUGAGGAUCACCCAUGUGUCCUACCGG [Fiskers Ex 6 - 58] (puzzle: Exclusion 6)
- apparent KD of MS2 coat protein [1]: 0.0113 µM

Sequence: CAAUAUUACUGAGGAUAUCCUAGUGUAUUUCAGGGAGAAGGCGGACUCAACAUGAGGAUCACCCAUGUAAGACGGGUACUAGAU [Ex NG1 #17] (Eterna round: R96, puzzle: Exclusion NG 1)
- apparent KD of MS2 coat protein (input ligand: FMN 200 uM): 0.0893 µM
- apparent KD of MS2 coat protein [4]: 0.0427 µM
- apparent KD of MS2 coat protein (input ligand: none): 0.0814 µM

Sequence: CCGGAAAGGGAGGAUAUAGGAGUCGAUAGACACCUAGAAGGUCUGACAUGAGGAUCACCCAUGUGUCCUACCGG [Fiskers Ex 6 - 90] (puzzle: Exclusion 6)
- apparent KD of MS2 coat protein [2]: 0.0203 µM
- apparent KD of MS2 coat protein [1]: 0.0199 µM
- apparent KD of MS2 coat protein [3]: 0.0198 µM

Sequence: AUAAAUCAUGUAGGAUAUGCGUGGCAAAGCUAUGCAGAAGGACAUGAGGAUCACCCAUGUCUUUCCGUCUGAGUACAGACGGGA [Mat - Exclusion NG 1 - Mod of JL - D47] (Eterna round: R96, puzzle: Exclusion NG 1)
- apparent KD of MS2 coat protein (input ligand: FMN 200 uM): 0.172 µM
- apparent KD of MS2 coat protein [4]: 0.0211 µM
- apparent KD of MS2 coat protein (input ligand: none): 0.0249 µM

Sequence: GUGGUACAUGAGGAUCACCCAUGUGAGGAUAUGUCUGUCUGUUGGUUUCGGCGGGCGGGCAGAAGGCGCGUCGC [-27.3, -25.1 kcal, 16% A] (Eterna round: R97, puzzle: Exclusion 1)
- apparent KD of MS2 coat protein (input ligand: FMN 200 uM): 0.0341 µM
- apparent KD of MS2 coat protein (input ligand: none): 0.0316 µM

Sequence: GUGAGGGAGUGAGGAUAUCAGGGAGGUGGGAAAUGAGAAGGUACAUGAGGAUCACCCAUGUAAGAGUAGGGAAGAGAGAAGAGU [Default title] (Eterna round: R96, puzzle: Exclusion NG 1)
- apparent KD of MS2 coat protein (input ligand: FMN 200 uM): 0.0787 µM
- apparent KD of MS2 coat protein [4]: 0.109 µM
- apparent KD of MS2 coat protein (input ligand: none): 0.0838 µM

Sequence: GCAAAAUAUCAGGAUAUGACUAGCUGCGGCUAGUCAGAAGGGAUAACAUGAGGAUCACCCAUGUGAUAAAGUGU [JR_Ex6_Sub029] (Eterna round: R97, puzzle: Exclusion 6)
- apparent KD of MS2 coat protein (input ligand: FMN 200 uM): 0.0667 µM
- apparent KD of MS2 coat protein (input ligand: none): 0.0604 µM

Sequence: AAUUAUUGAUGAGGAUAUUGUGGUGAAACACGACGAGAAGGCAUAUGUCACAUGAGGAUCACCCAUGUGAGCCUUGUGCAUAUA [Ex NG1 #64] (Eterna round: R96, puzzle: Exclusion NG 1)
- apparent KD of MS2 coat protein [4]: 0.0158 µM

Sequence: GCGUUCUGAGGAUAUACAUGAGGAUCACCCAUGUUGAGAAAUAAGAAUAAGCCCUUAAGUAGAAGGCAGAGUGC [JR_Ex3_Sub073] (Eterna round: R97, puzzle: Exclusion 3)
- apparent KD of MS2 coat protein (input ligand: FMN 200 uM): 0.105 µM
- apparent KD of MS2 coat protein (input ligand: none): 0.0278 µM

Sequence: GUCACAUGGACAUAGGAUCACAUGAGGAUCACCCAUGUGACUAACAAGCUUUUUGUUCGUCUUAUGUCCAUGUGAAG [Stov1/15-B3] (Eterna round: R97, puzzle: Sensor, turn-off variant 1)
- apparent KD of MS2 coat protein (input ligand: FMN 200 uM): 0.0124 µM
- apparent KD of MS2 coat protein (input ligand: none): 0.012 µM

Sequence: AGAUGGCGAGGAUAUACAUGAGGAUCACCCAUGUGAGAAGAAAGAGUGAGGAAGAAAAGUAGAAGGCGCUGUCA [Mat - Exclusion 3 - Mod of Salish D19] (puzzle: Exclusion 3)
- apparent KD of MS2 coat protein [2]: 0.209 µM
- apparent KD of MS2 coat protein [1]: 0.0954 µM
- apparent KD of MS2 coat protein [3]: 0.0761 µM

Sequence: GAUGCUUCGGCAUCUACAAGCUUUUUGCUCGUCUUAUUAACAUGAGGAUCACCCAUGUACAAGAGACCUCAUGUAUU [Sensor v3 - turn-off variant 2 - 12] (puzzle: Sensor v3, turn-off variant 2)
- apparent KD of MS2 coat protein [2]: 0.125 µM
- apparent KD of MS2 coat protein [1]: 0.0143 µM
- apparent KD of MS2 coat protein [3]: 0.202 µM

Sequence: CCUCAGUGAGGAUAUGCUGCCGCCGUGAAUACACACCGCGCGUAGAAGGCACAUGAGGAUCACCCAUGUGAAGG [Eternabot (Original) Solution 9] (Eterna round: R97, puzzle: Exclusion 4)
- apparent KD of MS2 coat protein (input ligand: FMN 200 uM): 0.354 µM
- apparent KD of MS2 coat protein (input ligand: none): 0.0977 µM

Sequence: AAAGGGCGUGUGAGGAUAUCGACCCGACUUCCAGUCGAGAAGGCACAUGAGGAUCACCCAUGUGAUGACAGCGA [BmEX4 B.8] (Eterna round: R97, puzzle: Brourd's mod of Exclusion 4)
- apparent KD of MS2 coat protein (input ligand: FMN 200 uM): 0.0384 µM
- apparent KD of MS2 coat protein (input ligand: none): 0.0162 µM

Sequence: GCAUUGAGUGUGAGGAUAUGCUGGUCCUUGGAUCAGCAGAAGGCACAUGAGGAUCACCCAUGUGAAUACAAUGC [JL bmx4 3.13] (puzzle: Brourd's mod of Exclusion 4)
- apparent KD of MS2 coat protein [1]: 0.0189 µM

Sequence: GCAUUACAUGAGGAUCACCCAUGUGAGGAUAUUAGGGUCGCAAGCACGUCUAGCAGACUGAGAAGGCACGGGUG [Eternabot (L1) Solution 45] (Eterna round: R97, puzzle: Exclusion 1)
- apparent KD of MS2 coat protein (input ligand: FMN 200 uM): 0.139 µM
- apparent KD of MS2 coat protein (input ligand: none): 0.192 µM

Sequence: AGAUUACGAGGAUAUCGAGUUUAGUACAUGAGGAUCACCCAUGUUAUCCAGGUCUCGUUUCGAGAAGGCGUGAUUC [LRO-Ex5-08] (puzzle: Exclusion 5)
- apparent KD of MS2 coat protein [1]: 0.2 µM

Sequence: CUGGUCUAUGUAGGAUAUGGUGUAUAUGUAUUACCAGAAGGACAUGAGGAUCACCCAUGUGUCGUGGUAUGAGUAGGUGAUGUU [Random] (Eterna round: R96, puzzle: Exclusion NG 1)
- apparent KD of MS2 coat protein [4]: 0.0402 µM
